These results are taken from article PMC8530227.

The assay concerns the target Get3^BDP•TA targeting complex (Get3 dimer with the model tail-anchored substrate 3xStrep-SUMOnc-Bos1-opsin) (yeast | not stated) (UniProt Q12154). As to the kind of experiment: FRET or BRET. On the technique in general: BRET reads energy transfer from a luciferase to a nearby fluorophore.

Sequence of Get3^BDP•TA targeting complex (Get3 dimer with the model tail-anchored substrate 3xStrep-SUMOnc-Bos1-opsin) (yeast | not stated) (Q12154 whole entry, chain 1 of 2): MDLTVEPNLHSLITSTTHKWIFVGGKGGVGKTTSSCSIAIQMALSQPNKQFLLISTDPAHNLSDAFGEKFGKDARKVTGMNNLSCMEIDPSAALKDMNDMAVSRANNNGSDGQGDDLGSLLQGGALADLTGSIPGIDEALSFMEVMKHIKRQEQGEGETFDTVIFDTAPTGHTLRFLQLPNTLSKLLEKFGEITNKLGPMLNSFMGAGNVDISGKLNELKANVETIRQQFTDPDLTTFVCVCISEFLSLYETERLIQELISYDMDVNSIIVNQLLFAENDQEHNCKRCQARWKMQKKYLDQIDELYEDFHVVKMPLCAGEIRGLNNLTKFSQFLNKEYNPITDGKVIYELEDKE
Sequence of Get3^BDP•TA targeting complex (Get3 dimer with the model tail-anchored substrate 3xStrep-SUMOnc-Bos1-opsin) (yeast | not stated) (P25385 203-244, chain 2 of 2, further chain): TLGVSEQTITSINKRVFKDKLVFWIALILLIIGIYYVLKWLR

Broadly, the Kd is a measure of binding affinity in units of concentration. A low value points to a tighter complex. “mini-Get1(NR)/2^TMR (from UniProt P53192 20-102; P40056 1-150) (complex)” gave a Kd of 7.1 nM.
As for “mini-Get1^TMR/2 (mini-Get1/2 labeled with TMR on Get1CD) (from UniProt P53192 20-102; P40056 1-150) (complex)”, the reduction in donor fluorescence (FRET) was 50%.
With “mini-Get1/2^TMR (mini-Get1/2 labeled with TMR on Get2CD) (from UniProt P53192 20-102; P40056 1-150) (complex)”, the reduction in donor fluorescence (FRET) came out at 50%.
